Legend:
[1] = target: T1, human FcRH5 on stably transfected cells (BJAB, OPM2) (human, UniProt Q96RD9 16-977); test: Scatchard, 125I-labelled antibody competed with the unlabelled same antibody on BJAB.huFcRH5 cells, 4 C; St. Error 0.046
T1 construct: Cells were transfected with pRK.CMV.PD.nbe.FcRH5 (untagged); also called huFcRH5; BJAB.huFcRH5
T1 chain: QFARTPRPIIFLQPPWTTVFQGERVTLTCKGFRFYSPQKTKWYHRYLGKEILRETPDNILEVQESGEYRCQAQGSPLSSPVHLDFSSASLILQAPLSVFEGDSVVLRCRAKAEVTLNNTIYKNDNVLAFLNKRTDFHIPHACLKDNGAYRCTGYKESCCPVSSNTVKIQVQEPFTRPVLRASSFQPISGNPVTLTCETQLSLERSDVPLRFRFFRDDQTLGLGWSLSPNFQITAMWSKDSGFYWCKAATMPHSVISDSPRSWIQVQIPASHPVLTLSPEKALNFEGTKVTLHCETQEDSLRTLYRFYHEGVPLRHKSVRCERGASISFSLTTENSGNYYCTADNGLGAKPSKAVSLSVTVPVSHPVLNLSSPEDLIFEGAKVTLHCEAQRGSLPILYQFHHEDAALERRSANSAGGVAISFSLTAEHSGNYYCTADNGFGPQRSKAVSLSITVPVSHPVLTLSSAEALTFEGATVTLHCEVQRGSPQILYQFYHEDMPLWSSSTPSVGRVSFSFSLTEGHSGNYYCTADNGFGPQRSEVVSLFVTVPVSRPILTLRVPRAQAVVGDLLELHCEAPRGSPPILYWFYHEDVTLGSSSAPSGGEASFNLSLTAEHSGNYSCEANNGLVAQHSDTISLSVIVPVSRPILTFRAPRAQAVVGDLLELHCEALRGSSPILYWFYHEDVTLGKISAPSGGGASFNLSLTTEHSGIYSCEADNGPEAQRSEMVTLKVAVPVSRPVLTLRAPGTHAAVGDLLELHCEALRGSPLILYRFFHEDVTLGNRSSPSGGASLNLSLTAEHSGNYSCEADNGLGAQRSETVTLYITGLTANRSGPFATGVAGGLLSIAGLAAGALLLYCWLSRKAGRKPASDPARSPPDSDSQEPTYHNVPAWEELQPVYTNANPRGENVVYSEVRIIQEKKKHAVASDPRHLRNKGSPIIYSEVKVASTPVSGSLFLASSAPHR

[2] = target: T2, cynomolgus FcRH5 on stably transfected SVT2 cells (cynomolgus monkey); test: Scatchard, 125I-labelled antibody competed with the unlabelled same antibody on SVT2.cyFcRH5 cells, 4 C; St. Error 0.530
T2 construct: also called cyno FcRH5; cynoFcRH5
T2 chain: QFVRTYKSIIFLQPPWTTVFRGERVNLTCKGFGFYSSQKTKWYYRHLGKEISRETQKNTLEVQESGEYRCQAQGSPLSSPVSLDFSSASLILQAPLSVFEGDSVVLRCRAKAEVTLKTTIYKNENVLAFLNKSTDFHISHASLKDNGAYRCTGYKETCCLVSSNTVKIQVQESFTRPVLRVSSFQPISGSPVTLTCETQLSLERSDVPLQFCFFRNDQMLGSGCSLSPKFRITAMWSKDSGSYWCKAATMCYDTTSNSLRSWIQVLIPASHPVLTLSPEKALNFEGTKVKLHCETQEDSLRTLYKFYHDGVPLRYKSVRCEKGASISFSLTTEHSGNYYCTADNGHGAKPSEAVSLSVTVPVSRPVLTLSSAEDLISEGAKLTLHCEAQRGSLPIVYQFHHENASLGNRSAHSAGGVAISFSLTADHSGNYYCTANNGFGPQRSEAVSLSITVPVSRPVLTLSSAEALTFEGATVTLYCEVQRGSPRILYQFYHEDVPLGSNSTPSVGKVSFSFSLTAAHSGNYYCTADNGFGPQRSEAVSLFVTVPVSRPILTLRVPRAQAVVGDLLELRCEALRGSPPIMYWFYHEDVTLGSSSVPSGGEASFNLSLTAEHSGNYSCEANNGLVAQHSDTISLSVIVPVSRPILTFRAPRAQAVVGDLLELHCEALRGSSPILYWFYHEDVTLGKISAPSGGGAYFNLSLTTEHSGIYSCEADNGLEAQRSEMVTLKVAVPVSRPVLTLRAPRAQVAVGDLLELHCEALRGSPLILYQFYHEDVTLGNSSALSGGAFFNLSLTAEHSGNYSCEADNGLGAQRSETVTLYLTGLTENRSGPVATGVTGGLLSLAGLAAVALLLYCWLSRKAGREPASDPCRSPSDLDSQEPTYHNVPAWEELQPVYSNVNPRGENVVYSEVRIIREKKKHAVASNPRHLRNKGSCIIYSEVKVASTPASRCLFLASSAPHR
Procedure: (§1) To further determine binding of the FcRH5 murine antibodies and IgG clones, binding of iodinated IgG variants to OPM2 cells expressing human FcRH5 and SVT2 cells expressing cynomologous FcRH5, Scatchard analysis was performed.
(§2) For Scatchard analysis, 0.5 nM I¹²⁵ labeled murine or IgG clone anti-FcRH5 was competed against unlabeled murine or IgG clone anti-FcRH5, respectively, ranging from 50 to 0.02 nM (12 step 1:2 serial dilution) in the presence of a transfected OPM2 line stably expressing human-FcRH5 and a transfected SVT2 line stably expressing cynomologous-FcRH5. After a four hour incubation at 4° C., cells were washed and cell pellet counts were read by a gamma counter (1470 WIZARD Automatic Gamma Counter; Perkin Elmer, Walthem, Mass.). All points were done in triplicate and counted for 10 minutes. The average CPM was used for Kd calculation using the New Ligand (Genentech, South San Francisco, Calif.) program.

[3] = target: T1, human FcRH5 on stably transfected cells …; test: Scatchard, 125I-labelled antibody competed with the unlabelled same antibody on BJAB.huFcRH5 cells, 4 C; St. Error 0.007
[4] = target: T2, cynomolgus FcRH5 on stably transfected …; test: Scatchard, 125I-labelled antibody competed with the unlabelled same antibody on SVT2.cyFcRH5 cells, 4 C; St. Error 0.027
[5] = target: T1, human FcRH5 on stably transfected cells …; test: Scatchard, 125I-labelled antibody competed with the unlabelled same antibody on OPM2.huFcRH5 cells, 4 C; St. Error 0.150
Procedure: as §1, §2

[6] = target: T2, cynomolgus FcRH5 on stably transfected …; test: Scatchard, 125I-labelled antibody competed with the unlabelled same antibody on SVT2.cyFcRH5 cells, 4 C; St. Error 1.340
Procedure: as §1, §2

[7] = target: T3, human FcRH5 (PRO52387; FcRH5c/IRTA2c), antigen as used in Biacore and in hybridoma screening (human, UniProt Q96RD9 16-851, limits assumed); test: SPR (Biacore 2000), IgG captured on anti-murine IgG chip, FcRH injected, 1:1 Langmuir fit, 25 C
T3 construct: The Biacore text only says that 'various FcRHs were injected'; also called Hu antigen; FcRH5/IRTA2
T3 chain: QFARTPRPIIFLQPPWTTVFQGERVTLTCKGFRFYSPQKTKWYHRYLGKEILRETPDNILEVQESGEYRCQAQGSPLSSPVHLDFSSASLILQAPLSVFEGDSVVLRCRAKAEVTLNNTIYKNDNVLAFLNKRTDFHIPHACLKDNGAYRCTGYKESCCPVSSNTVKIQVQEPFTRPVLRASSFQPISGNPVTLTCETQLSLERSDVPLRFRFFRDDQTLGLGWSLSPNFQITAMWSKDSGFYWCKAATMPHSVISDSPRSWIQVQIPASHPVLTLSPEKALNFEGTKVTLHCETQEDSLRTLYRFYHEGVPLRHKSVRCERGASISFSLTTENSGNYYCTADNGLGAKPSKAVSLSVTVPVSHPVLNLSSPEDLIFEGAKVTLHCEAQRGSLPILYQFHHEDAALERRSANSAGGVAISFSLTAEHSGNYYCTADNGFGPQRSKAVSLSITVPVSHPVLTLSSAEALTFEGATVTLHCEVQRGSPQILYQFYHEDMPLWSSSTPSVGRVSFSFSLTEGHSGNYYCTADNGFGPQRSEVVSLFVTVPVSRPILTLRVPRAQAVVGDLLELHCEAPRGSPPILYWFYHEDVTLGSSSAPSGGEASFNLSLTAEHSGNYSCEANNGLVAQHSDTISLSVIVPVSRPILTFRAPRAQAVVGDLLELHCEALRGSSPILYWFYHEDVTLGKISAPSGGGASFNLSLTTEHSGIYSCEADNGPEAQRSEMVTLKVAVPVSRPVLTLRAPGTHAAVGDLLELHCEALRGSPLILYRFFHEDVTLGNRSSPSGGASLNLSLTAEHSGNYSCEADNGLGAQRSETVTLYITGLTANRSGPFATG
Procedure: The FcRH-binding affinities of IgGs were calculated from association and dissociation rate constants measured using a Biacore 2000 surface plasmon resonance system (BIAcore, Inc.). […] Briefly, for each cycle of kinetic analysis, 5 ul of 100 nM IgG was captured on the chip, two-fold serial dilution of various FcRHs were injected at a flow rate of 20 ul/min for 150 sec. Antigen dissociation was monitored for 180 sec before regeneration. Equilibrium dissociation constants at 25° C. were calculated by fitting the data with a 1:1 Langmuir binding model. Running buffer was PBS with 0.05% Tween-20.

[8] = target: T2, cynomolgus FcRH5 on stably transfected …; test: Scatchard, 125I-labelled antibody competed with the unlabelled same antibody on SVT2.cyFcRH5 cells, 4 C; St. Error 0.022
Procedure: as §1, §2

[9] = target: T1, human FcRH5 on stably transfected cells …; test: Scatchard, 125I-labelled antibody competed with the unlabelled same antibody on OPM2.huFcRH5 cells, 4 C; St. Error 0.050
Procedure: as §1, §2

[10] = target: T2, cynomolgus FcRH5 on stably transfected …; test: Scatchard, 125I-labelled antibody competed with the unlabelled same antibody on SVT2.cyFcRH5 cells, 4 C; St. Error 0.000
Procedure: as §1, §2

B1: murine anti-FcRH5 (10A8) monoclonal antibody (antibody, V domains shown)
VH: EVQLVESGGGLVKPGGSLKISCAASGFTFSSYAVSWVRQTPEKRLEWVATISSGGSLTFYLDSVRGRFTISRDNAKNTLYLQMSSLRSEDTAMYYCARPIPDYYALDYWGQGTSVTVSS
VL: DIVMTQSHKFMSTSVRDRVSITCKASQDVSTAVAWYQQKPGQSPKLLIYSASYRYTGVPDRFTGSGSGTDFTFTISSVQAEDLAVYYCQQHFSSPRTFGGGTKVEIKR
notes: Murine IgG from a hybridoma, detected with anti-mouse IgG1 in FACS; also called mu10A8; MA10A8
Question: Which Kd [1] does the source give for B1 here?
Answer: The Kd was 0.44 nM.

Question: And the Kd [2]?
Answer: Its Kd is 2.74 nM.

B2: murine anti-FcRH5-6H1 monoclonal antibody (antibody)
chain 1: DIVMTQSHKFMSTSVRDRVSITCKASQDVSTAVAWYQQKPGQSPKLLIYSASYRYTGVPDRFTGSGSGTDFTFTISSVQAEDLAVYYCQQHFSSPRTFGGGTKVEIKR
chain 2: EVQLVESGGGLVKPGGSLKISCAASGFTFSSYAVSWVRQTPEKRLEWVATISSGGSLTFYLDSVRGRFTISRDNAKNTLYLQMSSLRSEDTAMYYCARPIPDYYALDYWGQGTSVTVSS
Question: What does the source list for B2?
Answer: Kd [3]: 0.19 nM; Kd [4]: 0.38 nM

B3: humanized anti-FcRH5 antibody 10A8 version 1 (antibody, human IgG1, V domains shown)
VH: EVQLVESGGGLVQPGGSLRLSCAASGFTFSSYAVSWVRQAPGKGLEWVATISSGGSLTFYLDSVRGRFTISRDNSKNTLYLQMNSLRAEDTAVYYCARPIPDYYALDYWGQGTLVTVSS
VL: DIQMTQSPSSLSASVGDRVTITCKASQDVSTAVAWYQQKPGKAPKLLIYSASYRYTGVPSRFSGSGSGTDFTLTISSLQPEDFATYYCQQHFSSPRTFGQGTKVEIKR
notes: Full-length human IgG1 with a human kappa constant domain; also called hu10A8 v1; hu10A8
Question: What does the source list for B3?
Answer: Kd [5]: 1.44 nM; Kd [6]: 3.04 nM

B4: murine anti-FcRH5-7D11 monoclonal antibody (antibody, V domains shown)
VH: EVQLVESGGGLVQPGGSLKLSCAASGFTFSSYGMSWVRQTPDKRLELVATITRNGGTTYYLDSVKGRFTISRDNAKNTLYLQMSSLKSEDTAMYYCARGPIYYDYGYAMDYWGQGTTVTVSS
VL: DILLTQSPAILSVSPGERVSFSCRSSQSIGTNIHWYQQRTNGSPRLLIKFASESLSGIPSRFSGSGSGTDFTLSINSVESEDFADYYCQQSNSWPLTFGAGTKVEIK
notes: Murine IgG from a hybridoma; parent of ch7D11; also called 7D11.1.1; mu7D11
Question: For B4, which Kd [7] is on record?
Answer: Its Kd is 6 nM.

B5: chimeric anti-human FcRH5 antibody 10A8 (antibody)
heavy: not shown
light: DIVMTQSHKFMSTSVRDRVSITCKASQDVSTAVAWYQQKPGQSPKLLIYSASYRYTGVPDRFTGSGSGTDFTFTISSVQAEDLAVYYCQQHFSSPRTFGGGTKVEIKRTVAAPSVFIFPPSDEQLKSGTASVVCLLNNFYPREAKVQWKVDNALQSGNSQESVTEQDSKDSTYSLSSTLTLSKADYEKHKVYACEVTHQGLSSPVTKSFNRGEC
notes: Murine 10A8 variable domains on human IgG1 and kappa constant domains; also called ch10A8; chMAFcRH5 (10A8)
Question: Which Kd [8] does the source give for B5 here?
Answer: Its Kd is 0.98 nM.

B6: cysteine engineered chimeric anti-FcRH5 10A8, heavy chain A118C (antibody, human IgG1, kappa, name in EU numbering)
heavy: not shown
light: DIVMTQSHKFMSTSVRDRVSITCKASQDVSTAVAWYQQKPGQSPKLLIYSASYRYTGVPDRFTGSGSGTDFTFTISSVQAEDLAVYYCQQHFSSPRTFGGGTKVEIKRTVAAPSVFIFPPSDEQLKSGTASVVCLLNNFYPREAKVQWKVDNALQSGNSQESVTEQDSKDSTYSLSSTLTLSKADYEKHKVYACEVTHQGLSSPVTKSFNRGEC
notes: It is built here from the ch10A8 chains plus the stated A118C change; also called thio-ch10A8.HC; thio-ch10A8-HC(A118C)
Question: Which Kd [9] does the source give for B6 here?
Answer: The Kd was 0.85 nM.

Question: What about the Kd [10] of the same binder?
Answer: Its Kd is 1.57 nM.

— patent publication US20130089555A1 (Genentech, published 2013)
